PMC5214741

Columns and labels:
[1] = biological target: E. coli F-ATPase subunit b (cysteine-free F-ATPase) (E. coli) (UniProt P0ABA0); experiment: cryo-EM structure; purified cysteine-free E. coli F-ATPase in digitonin at 3.58 μM, no nucleotides added; three rotational states at 6.9, 7.8 and 8.5 Å; models built by docking crystal, NMR and homology models, side chains pruned to Cα
[2] = biological target: E. coli F-ATPase subunit c (cysteine-free F-ATPase) (E. coli) (UniProt P68699); experiment: as above

Work on “E. coli F-ATPase subunit b (cysteine-free F-ATPase) (from UniProt P0ABA0 2-156) (natural protein)” yielded a stoichiometry N [1] of 2.
In the case of “E. coli F-ATPase subunit c (cysteine-free F-ATPase) (from UniProt P68699 1-79) (natural protein)”, the stoichiometry N [2] is reported as 10.
